Ends that are not written are not given here. dimethyl = dimethyl-lysine
Target: T1, 53BP1 tandem Tudor domain (residues 1459-1634) (human, UniProt Q12888 1459-1634)
T1 chain: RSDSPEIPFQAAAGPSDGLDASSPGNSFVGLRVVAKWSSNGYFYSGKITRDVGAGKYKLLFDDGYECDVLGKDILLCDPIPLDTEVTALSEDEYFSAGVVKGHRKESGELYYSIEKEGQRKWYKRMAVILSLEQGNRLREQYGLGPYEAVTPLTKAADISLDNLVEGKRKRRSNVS
Experiment: ITC

Kd: 19.8 µM
Binder: KGGAKRHRK(dimethyl)VLRDN [H4K20me2 peptide (residues 12-25)]

— article PMC6043480 (2018)
